According to doi:10.1101/569459 (bioRxiv, 2019):
Residue numbers refer to the chain shown, from its start. Each block holds one binder with its values, some of them ahead of it.

Target: MBP::PP1β (UniProt P62140 1-327)
Assay: pull-down

Sequence of MBP::PP1β (P62140 whole entry): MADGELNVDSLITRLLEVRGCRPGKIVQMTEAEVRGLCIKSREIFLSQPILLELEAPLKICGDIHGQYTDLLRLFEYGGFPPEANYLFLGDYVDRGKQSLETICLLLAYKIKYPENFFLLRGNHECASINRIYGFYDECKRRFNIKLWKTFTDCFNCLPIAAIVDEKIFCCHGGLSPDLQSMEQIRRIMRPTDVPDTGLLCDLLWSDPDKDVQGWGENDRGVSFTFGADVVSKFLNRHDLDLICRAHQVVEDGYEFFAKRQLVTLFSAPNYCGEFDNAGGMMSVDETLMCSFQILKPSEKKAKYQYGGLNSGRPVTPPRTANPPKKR

binding result: binds
B1: GST::MKLP1_(620-858) (wild type) (domain or fragment, UniProt Q02241-2 620-856, looked up)
chain: ETTMKWEKECERRVAAKQLEMQNKLWVKDEKLKQLKAIVTEPKTEKPERPSRERDREKVTQRSVSPSPVPLLFQPDQNAPPIRLRHRRSRSAGDRWVDHKPASNMQTETVMQPHVPHAITVSVANEKALAKCEKYMLTHQELASDGEIETKLIKGDIYKTRGGGQSVQFTDIETLKQESPNGSRKRRSSTVAPAQPDGAESEWTDVETRCSVAVEMRAGSQLGPGYQHHAQPKRKKP

binding result: binds
B2: GST::MKLP1_(620-858) AQA mutant (domain or fragment, UniProt Q02241-2 620-856, looked up)
chain: B1 chain with V167A, F169A
